Where a chain is given by its changes, count along the chain named. Numbers in names are those of the source. No end group written: not given here. TMR = tetramethyl rhodamine dye
T1: Rb^P A490V (human, UniProt P06400 380-788, A490V)
T1 construct: also called variant 17
T1 sequence (looked up): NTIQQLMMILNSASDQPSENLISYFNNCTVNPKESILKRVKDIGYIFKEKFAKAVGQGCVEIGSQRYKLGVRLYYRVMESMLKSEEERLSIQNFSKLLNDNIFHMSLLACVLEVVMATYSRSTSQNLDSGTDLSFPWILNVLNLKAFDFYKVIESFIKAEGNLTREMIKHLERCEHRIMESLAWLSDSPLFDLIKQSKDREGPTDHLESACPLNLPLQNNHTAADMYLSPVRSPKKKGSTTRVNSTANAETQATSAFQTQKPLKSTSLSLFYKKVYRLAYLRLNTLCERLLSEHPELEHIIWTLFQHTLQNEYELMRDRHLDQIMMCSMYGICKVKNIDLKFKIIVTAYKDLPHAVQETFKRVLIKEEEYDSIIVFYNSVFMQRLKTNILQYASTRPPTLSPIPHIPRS

T2: Rb^P S648T (human, UniProt P06400 380-788, S648T)
T2 construct: also called variant 46
T2 sequence (looked up): T1 sequence (looked up) with V111A, S269T

T3: Rb^P R741S (human, UniProt P06400 380-788, R741S)
T3 construct: also called variant 70
T3 sequence (looked up): T1 sequence (looked up) with V111A, R362S

T4: Rb^P D697E (human, UniProt P06400 380-788, D697E)
T4 construct: also called variant 62
T4 sequence (looked up): T1 sequence (looked up) with V111A, D318E

T5: Rb^P R621P (human, UniProt P06400 380-788, R621P)
T5 construct: also called variant 43
T5 sequence (looked up): T1 sequence (looked up) with V111A, R242P

B1: TMR-E2F1^TD, peptide of the E2F1 transactivation domain (peptide)
peptide: {TMR}-GEGIRDLFDCDFGDLTPLD
notes: also called E2F^TD; source: synthetic peptide, bought: GenScript
B2: TMR-E7^LxCxE, LxCxE peptide of the E7 oncoprotein from HPV (peptide)
peptide: DLYCYEQLN
modifications: also: TMR label, position not given here
notes: source: synthetic peptide, bought: GenScript

Assays:
Details in all cases: both partners purified
[1] = target: T1, Rb^P A490V; assay: fluorescence polarisation; 25 °C; unlabeled Rb^P titrated against 1.5 nM TMR-E2F1^TD or 7.5 nM TMR-E7^LxCxE; 25 mM Tris pH 8.0, 200 mM NaCl, 1 mM DTT, 0.1% Tween-20; 2 min incubation; quadratic fit; apparent Kd for the variants, Kd for WT
[2] = target: T2, Rb^P S648T; assay: as above
[3] = target: T3, Rb^P R741S; assay: as above
[4] = target: T4, Rb^P D697E; assay: as above
[5] = target: T5, Rb^P R621P; assay: fluorescence polarisation; 37 °C, after the 25 °C reading ramped over 7 min to 37 °C and 2 min incubation; unlabeled Rb^P against 1.5 nM TMR-E2F1^TD or 7.5 nM TMR-E7^LxCxE; 25 mM Tris pH 8.0, 200 mM NaCl, 1 mM DTT, 0.1% Tween-20; apparent Kd

Row | Binder | Kd [1] | Kd [2] | Kd [3] | Kd [4] | Kd [5]
1 | B1 | 48 nM | 33 nM | 32 nM | 29 nM | 83 nM
2 | B2 | 11 nM | 6 nM | 16 nM | 9 nM | 32 nM

Reference: publication PMC11931385, “Structural and functional analysis of cancer-associated missense variants in the retinoblastoma protein pocket domain” (The Journal of Biological Chemistry, 2025)
